According to the supplement of paper PMC10598134:
± gives the standard deviation.

Assay: collision cross section of modified peptide (TIMS, N2, iRT-aligned); higher = larger / more extended gas-phase ion
Method in brief: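 Collision cross section was derived from the Mason-Schamp equation. Each value averages 1–3 technical replicates of the most abundant feature per charge state, measured on a timsTOF Pro/HT in dda-PASEF mode (nitrogen, ~2.4 mbar) after a 120-min nanoflow C18 gradient at 60 °C. Synthetic peptide pools (~100 fmol/µL in 2% acetonitrile/0.1% formic acid, iRT standard spiked 1:40) were identified with MaxQuant, and 1/K0 was calibrated with three reference ions and aligned run-wise to the median iRT peptide deviation.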

[1] = charge state: 2, modification: Malonyl
[2] = charge state: 2, modification: Methyl (K)
[3] = charge state: 3, modification: Methyl (K)
[4] = charge state: 2, modification: Succinyl
[5] = charge state: 2, modification: Trimethyl (K)
[6] = charge state: 3, modification: Trimethyl (K)
[7] = charge state: 2, modification: hydroxyisobutyryl
[8] = charge state: 2, modification: Acetyl (K)
[9] = charge state: 3, modification: Acetyl (K)
[10] = charge state: 2, modification: Butyryl
[11] = charge state: 3, modification: Butyryl
[12] = charge state: 2, modification: Crotonyl
[13] = charge state: 2, modification: Dimethyl (K)
[14] = charge state: 3, modification: Dimethyl (K)
[15] = charge state: 2, modification: Formyl
[16] = charge state: 2, modification: Glutarylation
[17] = charge state: 3, modification: Glutarylation
[18] = charge state: 2, modification: GlyGly (K)
[19] = charge state: 3, modification: GlyGly (K)
[20] = charge state: 3, modification: Succinyl
[21] = charge state: 3, modification: hydroxyisobutyryl

VNALKNLQVK [_VNALK(Malonyl)NLQVK_]
collision cross section [1]: 368.09 ± 0.62 Å²

VNALKNLQVK [_VNALK(Methyl (K))NLQVK_]
collision cross section [2]: 371.4 ± 0.45 Å²
collision cross section [3]: 420.52 ± 3.9 Å²

VNALKNLQVK [_VNALK(Propionyl)NLQVK_]
collision cross section (charge state: 2, modification: Propionyl): 372.11 ± 0.65 Å²

VNALKNLQVK [_VNALK(Succinyl)NLQVK_]
collision cross section [4]: 370.5 ± 1.8 Å²

VNALKNLQVK [_VNALK(Trimethyl (K))NLQVK_]
collision cross section [5]: 379.91 ± 0.019 Å²
collision cross section [6]: 418.46 ± 2.4 Å²

VNALKNLQVK [_VNALK(hydroxyisobutyryl)NLQVK_]
collision cross section [7]: 374.85 ± 0.8 Å²

VNIGQGSHPQKVK [_VNIGQGSHPQK(Acetyl (K))VK_]
collision cross section [8]: 426.92 ± 2.1 Å²
collision cross section [9]: 478.98 ± 3.2 Å²

VNIGQGSHPQKVK [_VNIGQGSHPQK(Butyryl)VK_]
collision cross section [10]: 432.28 ± 0.24 Å²
collision cross section [11]: 485.89 ± 2.6 Å²

VNIGQGSHPQKVK [_VNIGQGSHPQK(Crotonyl)VK_]
collision cross section [12]: 430.6 ± 0.84 Å²
collision cross section (charge state: 3, modification: Crotonyl): 487.14 ± 1.3 Å²

VNIGQGSHPQKVK [_VNIGQGSHPQK(Dimethyl (K))VK_]
collision cross section [13]: 407.47 ± 1.1 Å²
collision cross section [14]: 469.28 Å²

VNIGQGSHPQKVK [_VNIGQGSHPQK(Formyl)VK_]
collision cross section [15]: 425.2 ± 1.4 Å²
collision cross section (charge state: 3, modification: Formyl): 472.74 ± 2.1 Å²

VNIGQGSHPQKVK [_VNIGQGSHPQK(Gluratylation)VK_]
collision cross section [16]: 424.75 ± 1.8 Å²
collision cross section [17]: 494.72 ± 8.3 Å²

VNIGQGSHPQKVK [_VNIGQGSHPQK(GlyGly (K))VK_]
collision cross section [18]: 422.43 ± 1.1 Å²
collision cross section [19]: 490.21 ± 0.72 Å²

VNIGQGSHPQKVK [_VNIGQGSHPQK(Malonyl)VK_]
collision cross section [1]: 424.04 ± 0.57 Å²

VNIGQGSHPQKVK [_VNIGQGSHPQK(Methyl (K))VK_]
collision cross section [2]: 409.02 ± 0.54 Å²
collision cross section [3]: 465.41 ± 17 Å²

VNIGQGSHPQKVK [_VNIGQGSHPQK(Propionyl)VK_]
collision cross section (charge state: 3, modification: Propionyl): 485.17 ± 0.74 Å²

VNIGQGSHPQKVK [_VNIGQGSHPQK(Succinyl)VK_]
collision cross section [4]: 423.92 ± 1.1 Å²
collision cross section [20]: 481.33 ± 2 Å²

VNIGQGSHPQKVK [_VNIGQGSHPQK(Trimethyl (K))VK_]
collision cross section [5]: 405.12 ± 1.9 Å²
collision cross section [6]: 473.39 ± 2.7 Å²

VNIGQGSHPQKVK [_VNIGQGSHPQK(hydroxyisobutyryl)VK_]
collision cross section [7]: 435.4 ± 0.33 Å²
collision cross section [21]: 488.96 ± 2.8 Å²

VNVEAPDVNLEGLGGKLK [_VNVEAPDVNLEGLGGK(Acetyl (K))LK_]
collision cross section [8]: 460.53 ± 2.8 Å²
collision cross section [9]: 542.09 Å²

VNVEAPDVNLEGLGGKLK [_VNVEAPDVNLEGLGGK(Butyryl)LK_]
collision cross section [10]: 466.95 ± 0.75 Å²
collision cross section [11]: 548.3 ± 0.14 Å²

VNVEAPDVNLEGLGGKLK [_VNVEAPDVNLEGLGGK(Crotonyl)LK_]
collision cross section [12]: 459.79 Å²

VNVEAPDVNLEGLGGKLK [_VNVEAPDVNLEGLGGK(Dimethyl (K))LK_]
collision cross section [13]: 464.65 Å²
collision cross section [14]: 539.12 ± 0.61 Å²

VNVEAPDVNLEGLGGKLK [_VNVEAPDVNLEGLGGK(Formyl)LK_]
collision cross section [15]: 459.19 ± 1.2 Å²

VNVEAPDVNLEGLGGKLK [_VNVEAPDVNLEGLGGK(Gluratylation)LK_]
collision cross section [16]: 464.05 ± 2.1 Å²
collision cross section [17]: 550.01 Å²

VNVEAPDVNLEGLGGKLK [_VNVEAPDVNLEGLGGK(GlyGly (K))LK_]
collision cross section [18]: 470.77 ± 1.4 Å²
collision cross section [19]: 551.19 ± 1.1 Å²

VNVEAPDVNLEGLGGKLK [_VNVEAPDVNLEGLGGK(Malonyl)LK_]
collision cross section [1]: 463.09 ± 1.4 Å²

VNVEAPDVNLEGLGGKLK [_VNVEAPDVNLEGLGGK(Methyl (K))LK_]
collision cross section [2]: 464.13 ± 2.6 Å²
collision cross section [3]: 541.64 ± 0.51 Å²

VNVEAPDVNLEGLGGKLK [_VNVEAPDVNLEGLGGK(Succinyl)LK_]
collision cross section [4]: 466.17 ± 1.4 Å²
collision cross section [20]: 548.55 ± 1.1 Å²

VNVEAPDVNLEGLGGKLK [_VNVEAPDVNLEGLGGK(Trimethyl (K))LK_]
collision cross section [5]: 469.62 ± 0.99 Å²
collision cross section [6]: 545.57 ± 1.8 Å²

VNVEAPDVNLEGLGGKLK [_VNVEAPDVNLEGLGGK(hydroxyisobutyryl)LK_]
collision cross section [7]: 461.55 ± 2 Å²
collision cross section [21]: 550.67 ± 0.8 Å²
